The target in test [1] is T1, Human serum albumin (human, UniProt P02768 25-609).
T1 construct: Bought protein coated on the plate; also called HAS
The experiment in a line: ELISA; glycoprotein coated at 10 ng/mL, biotin-labeled lectin. As for the experimental part:
(§1) Serum glycoprotein (human serum albumin (CALBIOCHEM), Immunoglobulin G (Sigma), transferrin (Sigma), fibrinogen (AbD Serotec), Immunoglobulin A (BETYL) α2-macroglobulin (BMO), Immunoglobulin M (ROCKLAND), Complement C3 (CALBIOCHEM), haptoglobin (BIODESIGN), α1-acidic glycoprotein (Sigma), α-fetoprotein (Fitzgerald), α-fetoprotein L3 (Wako Pure Chemical Industries, Ltd) and prostate-specific antigen (Scipac) were dissolved in PBS at 1 mg/mL, and further diluted to 10 ng/mL with 0.1 M carbonate buffer (pH 9.5). Fifty μL of the diluted solution was added to a microtiter plate (Nunc 439454), and then incubated at 37° C. for 1 hour. After washed once with 0.05% Tween 20 (polyoxyethylene sorbitan monolaurate) (hereafter abbreviated as Tween)/PBS, 200 μL, of 1% bovine serum albumin (BSA)/PBS was added to the wells, and then incubated at 37° C. for 1 hour. The plate was washed twice with 0.05% Tween/PBS.
(§2) Fifty μL of the biotin labeled lectin solution prepared to 1 μg/mL with 1% BSA/0.05% Tween/PBS was added to the wells, and then left at room temperature for 1 hour. After washed twice with 0.05% Tween/PBS, 50 μL of the HRP labeled streptavidin solution (1 μg/mL) diluted with 1% BSA/0.05% Tween/PBS was added to the wells, and then left at room temperature for 30 minutes. After washed three times with 0.05% Tween/PBS, 50 μL of the HRP chromogenic substrate (product name: TMB Peroxidase substrate system, KPL) was added, and then left at room temperature for 5 minutes.
(§3) The absorbance values at 450 nm were subtracted by the absorbance value from the well on the plate in which no glycoprotein was immobilized, and the resulting values were taken as reaction values. Affinity was ranked by classifying the reaction values according to the following criteria.
(ELISA stands for enzyme-linked immunosorbent assay.)

In test [2] the target is T2, Haptoglobin from human serum (human, UniProt P00738 19-406, limits assumed, N-linked and O-linked glycans containing almost no fucose).
T2 construct: Natural haptoglobin is processed into α and β chains; also called Haptoglobin (HP); Serum HP
T2 sequence (looked up): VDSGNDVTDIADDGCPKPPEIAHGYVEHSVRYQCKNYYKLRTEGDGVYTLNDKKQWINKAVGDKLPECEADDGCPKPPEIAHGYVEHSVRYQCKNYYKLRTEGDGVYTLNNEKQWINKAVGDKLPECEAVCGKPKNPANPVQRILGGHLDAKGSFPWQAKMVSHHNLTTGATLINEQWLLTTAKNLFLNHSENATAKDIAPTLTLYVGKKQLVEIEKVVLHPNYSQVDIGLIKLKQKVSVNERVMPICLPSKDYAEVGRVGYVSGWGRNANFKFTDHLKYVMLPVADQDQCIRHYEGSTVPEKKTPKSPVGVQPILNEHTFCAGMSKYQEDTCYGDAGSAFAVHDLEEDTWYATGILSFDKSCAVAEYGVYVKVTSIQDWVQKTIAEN
The description is as above. As for the experimental part: as §1, §2, §3

The next test deals with T3, Immunoglobulin M.
T3 construct: Serum glycoprotein coated on the plate; also called IgM
The experiment in a line: ELISA; coated glycoprotein, biotin-labeled lectin 1 µg/mL; grade of A450 reaction value (Low 0.1 to 0.2, Moderate 0.2 to 0.5, High 0.5 or more). As for the experimental part:
as §1, §2, §3

A further test addresses T4, Transferrin.
T4 construct: Bought protein coated on the plate; also called TF
The test is described as above. As for the experimental part:
as §1, §2, §3

The next test concerns the target T5, Fibrinogen.
T5 construct: Bought protein coated on the plate; also called FB
The test is described as above. As for the experimental part:
as §1, §2, §3

Another test deals with T6, Immunoglobulin G.
T6 construct: Serum glycoprotein coated on the plate; also called IgG
The description is as above. As for the experimental part: as §1, §2, §3

A further test deals with T7, α2-Macroglobulin.
T7 construct: Bought protein coated on the plate; also called α2MG
T7 sequence (P01023 24-1474, species assumed, looked up): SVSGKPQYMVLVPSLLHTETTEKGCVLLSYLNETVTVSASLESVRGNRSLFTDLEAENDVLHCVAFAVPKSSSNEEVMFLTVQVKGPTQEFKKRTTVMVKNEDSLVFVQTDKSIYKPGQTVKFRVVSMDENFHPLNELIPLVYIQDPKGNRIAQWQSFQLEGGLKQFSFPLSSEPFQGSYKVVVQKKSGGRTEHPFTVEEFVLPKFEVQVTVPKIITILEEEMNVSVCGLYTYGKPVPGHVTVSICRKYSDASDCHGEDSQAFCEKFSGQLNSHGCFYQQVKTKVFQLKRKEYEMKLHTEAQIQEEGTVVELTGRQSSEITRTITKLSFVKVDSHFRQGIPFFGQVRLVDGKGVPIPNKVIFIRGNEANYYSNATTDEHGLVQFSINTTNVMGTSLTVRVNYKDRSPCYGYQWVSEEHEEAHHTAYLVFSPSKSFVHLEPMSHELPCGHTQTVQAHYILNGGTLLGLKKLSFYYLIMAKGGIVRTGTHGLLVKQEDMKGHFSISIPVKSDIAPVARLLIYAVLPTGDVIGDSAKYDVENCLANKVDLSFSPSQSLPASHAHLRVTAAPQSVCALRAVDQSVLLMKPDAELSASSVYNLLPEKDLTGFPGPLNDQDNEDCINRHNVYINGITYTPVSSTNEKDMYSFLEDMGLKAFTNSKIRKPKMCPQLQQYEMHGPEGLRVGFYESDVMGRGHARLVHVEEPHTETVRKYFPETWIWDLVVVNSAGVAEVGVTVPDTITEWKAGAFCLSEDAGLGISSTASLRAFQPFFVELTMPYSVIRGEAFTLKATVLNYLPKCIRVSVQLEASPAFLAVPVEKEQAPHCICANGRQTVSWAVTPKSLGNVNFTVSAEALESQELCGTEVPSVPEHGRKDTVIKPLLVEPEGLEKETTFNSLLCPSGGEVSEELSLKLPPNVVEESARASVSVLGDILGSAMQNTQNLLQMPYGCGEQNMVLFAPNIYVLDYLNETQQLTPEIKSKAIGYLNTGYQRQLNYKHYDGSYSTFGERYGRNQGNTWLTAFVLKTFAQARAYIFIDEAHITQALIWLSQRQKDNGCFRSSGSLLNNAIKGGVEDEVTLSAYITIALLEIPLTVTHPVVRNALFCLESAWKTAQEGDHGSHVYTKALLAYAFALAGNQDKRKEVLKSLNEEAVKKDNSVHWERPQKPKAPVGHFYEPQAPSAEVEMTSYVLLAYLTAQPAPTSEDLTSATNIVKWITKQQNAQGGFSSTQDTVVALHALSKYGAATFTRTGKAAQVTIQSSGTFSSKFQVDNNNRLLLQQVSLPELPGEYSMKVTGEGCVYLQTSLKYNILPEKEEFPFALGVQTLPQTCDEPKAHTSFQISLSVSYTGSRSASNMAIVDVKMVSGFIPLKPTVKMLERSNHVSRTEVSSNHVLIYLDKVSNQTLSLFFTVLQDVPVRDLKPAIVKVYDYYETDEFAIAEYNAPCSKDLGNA
The description is as above. As for the experimental part: as §1, §2, §3

Test [3] concerns the target T1, Human serum albumin. The test is described as above. As for the experimental part: as §1, §2, §3
Another test concerns the target T8, Immunoglobulin A.
T8 construct: Serum glycoprotein coated on the plate; also called IgA
Described as above. As for the experimental part: as §1, §2, §3

A further test concerns the target T9, α1-Acid glycoprotein.
T9 construct: Bought protein coated on the plate; also called AGP; α1-acidic glycoprotein
The description is as above. As for the experimental part:
as §1, §2, §3

The target of test [4] is T2, Haptoglobin from human serum. The description is as above. As for the experimental part: as §1, §2, §3
Another test has as its target T10, Complement C3.
T10 construct: Bought protein coated on the plate
Described as above. As for the experimental part: as §1, §2, §3

T1 sequence (P02768 25-609 limits assumed): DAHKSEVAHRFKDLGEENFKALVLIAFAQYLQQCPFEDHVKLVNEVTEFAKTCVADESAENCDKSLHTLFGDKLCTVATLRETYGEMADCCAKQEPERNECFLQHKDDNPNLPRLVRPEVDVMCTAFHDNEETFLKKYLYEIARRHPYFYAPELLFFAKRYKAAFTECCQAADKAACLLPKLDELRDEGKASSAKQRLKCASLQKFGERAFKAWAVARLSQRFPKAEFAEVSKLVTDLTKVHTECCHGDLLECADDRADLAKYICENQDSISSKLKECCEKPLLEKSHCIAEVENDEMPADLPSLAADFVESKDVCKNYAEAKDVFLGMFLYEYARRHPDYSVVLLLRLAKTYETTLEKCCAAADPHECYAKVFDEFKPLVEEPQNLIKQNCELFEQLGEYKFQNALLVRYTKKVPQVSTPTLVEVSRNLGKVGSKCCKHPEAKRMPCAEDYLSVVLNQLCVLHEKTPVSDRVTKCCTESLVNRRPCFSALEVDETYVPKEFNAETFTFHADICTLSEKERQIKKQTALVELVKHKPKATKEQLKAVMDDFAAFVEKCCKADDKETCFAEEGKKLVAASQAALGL
T10 sequence (P01024 23-667, chain 1 of 2): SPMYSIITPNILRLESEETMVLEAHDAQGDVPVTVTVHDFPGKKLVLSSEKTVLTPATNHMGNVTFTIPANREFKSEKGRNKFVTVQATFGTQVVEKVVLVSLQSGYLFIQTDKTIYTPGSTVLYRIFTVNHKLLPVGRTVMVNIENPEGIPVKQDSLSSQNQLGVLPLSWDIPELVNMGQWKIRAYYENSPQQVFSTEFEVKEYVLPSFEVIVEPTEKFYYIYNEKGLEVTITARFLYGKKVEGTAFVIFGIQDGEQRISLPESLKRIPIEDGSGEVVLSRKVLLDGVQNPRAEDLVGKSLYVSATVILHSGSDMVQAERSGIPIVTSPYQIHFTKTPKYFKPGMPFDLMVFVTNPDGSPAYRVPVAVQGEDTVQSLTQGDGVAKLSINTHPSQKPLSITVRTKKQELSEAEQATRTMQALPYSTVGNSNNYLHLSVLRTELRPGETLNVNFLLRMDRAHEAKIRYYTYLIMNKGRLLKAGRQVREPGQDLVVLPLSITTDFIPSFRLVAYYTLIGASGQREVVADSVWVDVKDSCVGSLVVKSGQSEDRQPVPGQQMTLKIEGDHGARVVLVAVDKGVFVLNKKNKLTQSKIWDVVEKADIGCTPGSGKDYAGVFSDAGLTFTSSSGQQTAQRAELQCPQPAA
T10 sequence (P01024 672-1663, chain 2 of 2): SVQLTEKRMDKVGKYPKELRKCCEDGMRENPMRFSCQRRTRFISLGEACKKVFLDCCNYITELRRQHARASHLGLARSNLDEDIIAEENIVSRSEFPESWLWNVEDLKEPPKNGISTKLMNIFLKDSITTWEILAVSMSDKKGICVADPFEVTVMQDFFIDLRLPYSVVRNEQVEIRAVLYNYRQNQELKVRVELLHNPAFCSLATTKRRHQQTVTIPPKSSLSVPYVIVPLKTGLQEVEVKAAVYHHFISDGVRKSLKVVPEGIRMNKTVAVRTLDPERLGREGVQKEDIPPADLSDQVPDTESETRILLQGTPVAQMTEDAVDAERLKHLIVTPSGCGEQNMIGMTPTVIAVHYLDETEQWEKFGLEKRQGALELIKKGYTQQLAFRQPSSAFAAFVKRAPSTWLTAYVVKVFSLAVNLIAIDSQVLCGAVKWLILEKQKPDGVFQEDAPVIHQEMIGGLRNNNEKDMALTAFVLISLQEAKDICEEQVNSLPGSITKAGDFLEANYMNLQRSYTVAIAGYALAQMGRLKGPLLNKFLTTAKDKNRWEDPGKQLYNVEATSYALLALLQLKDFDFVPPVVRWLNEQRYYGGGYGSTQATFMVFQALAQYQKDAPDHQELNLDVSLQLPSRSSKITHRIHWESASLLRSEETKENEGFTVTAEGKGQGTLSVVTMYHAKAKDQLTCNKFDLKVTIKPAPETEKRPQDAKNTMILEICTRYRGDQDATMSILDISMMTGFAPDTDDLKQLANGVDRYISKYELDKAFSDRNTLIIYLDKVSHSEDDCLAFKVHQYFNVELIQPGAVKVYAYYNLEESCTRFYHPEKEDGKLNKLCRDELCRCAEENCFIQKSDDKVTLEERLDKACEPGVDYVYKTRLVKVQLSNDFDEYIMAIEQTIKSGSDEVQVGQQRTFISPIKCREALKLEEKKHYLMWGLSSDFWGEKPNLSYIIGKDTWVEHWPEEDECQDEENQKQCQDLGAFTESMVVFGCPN
T4 sequence (P02787 20-698): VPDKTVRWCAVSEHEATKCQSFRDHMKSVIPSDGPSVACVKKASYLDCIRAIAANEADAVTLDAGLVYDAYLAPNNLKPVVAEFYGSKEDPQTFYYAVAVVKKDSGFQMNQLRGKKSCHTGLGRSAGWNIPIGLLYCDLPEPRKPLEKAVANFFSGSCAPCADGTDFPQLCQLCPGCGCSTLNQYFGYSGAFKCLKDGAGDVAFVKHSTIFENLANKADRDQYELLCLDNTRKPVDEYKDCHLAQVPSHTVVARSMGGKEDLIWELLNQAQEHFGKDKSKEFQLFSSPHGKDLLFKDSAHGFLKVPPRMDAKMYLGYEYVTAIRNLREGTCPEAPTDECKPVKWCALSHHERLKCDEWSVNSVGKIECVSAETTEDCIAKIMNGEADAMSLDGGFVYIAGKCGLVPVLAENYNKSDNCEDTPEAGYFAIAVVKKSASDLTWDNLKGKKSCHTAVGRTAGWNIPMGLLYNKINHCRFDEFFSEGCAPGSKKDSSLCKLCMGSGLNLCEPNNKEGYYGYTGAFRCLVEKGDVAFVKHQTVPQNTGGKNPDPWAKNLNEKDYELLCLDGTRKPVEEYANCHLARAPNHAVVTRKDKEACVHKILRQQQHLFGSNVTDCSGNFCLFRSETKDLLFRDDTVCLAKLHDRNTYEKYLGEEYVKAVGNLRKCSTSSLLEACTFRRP
T9 sequence (P02763 19-201): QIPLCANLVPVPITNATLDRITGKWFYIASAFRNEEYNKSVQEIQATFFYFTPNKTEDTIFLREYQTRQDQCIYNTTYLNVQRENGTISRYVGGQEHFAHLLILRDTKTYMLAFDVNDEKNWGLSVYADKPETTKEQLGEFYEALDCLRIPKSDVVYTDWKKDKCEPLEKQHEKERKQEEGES

B1: Ulex europaeus lectin (other, UniProt P22972 1-243, looked up)
chain: SDDLSFKFKNFSQNGKDLSFQGDASVIETGVLQLNKVGNNLPDETGGIARYIAPIHIWNCNTGEVASFITSFSFFMETSANPKAATDGLTFFLAPPDSPLRRAGGYFGLFEDTKDNDSSYQTVAVEFDTIGSPVNFDDPGFPHIGIDVNRVKSINAERWNKRYGLNNVANVEIIYEASSKTLTASLTYPSDQTSISVTSIVDLKEILPEWVSVGFSGGTYIGRQATHEVLNWYFTSNLINTNS
modifications: biotin label (site not stated)
notes: Bought, biotin-labeled; also called UEA-I; UEA- 1
As for B1, the binding result (with Human serum albumin [1]; in test [2]) was “no binding” each time.

B2: Aleuria aurantia lectin (other, UniProt P18891 2-313, looked up)
chain: PTEFLYTSKIAAISWAATGGRQQRVYFQDLNGKIREAQRGGDNPWTGGSSQNVIGEAKLFSPLAAVTWKSAQGIQIRVYCVNKDNILSEFVYDGSKWITGQLGSVGVKVGSNSKLAALQWGGSESAPPNIRVYYQKSNGSGSSIHEYVWSGKWTAGASFGSTVPGTGIGATAIGPGRLRIYYQATDNKIREHCWDSNSWYVGGFSASASAGVSIAAISWGSTPNIRVYWQKGREELYEAAYGGSWNTPGQIKDASRPTPSLPDTFIAANSSGNIDISVFFQASGVSLQQWQWISGKGWSIGAVVPTGTPAGW
modifications: biotin label (site not stated)
notes: Bought, biotin-labeled; also called AAL
In the case of B2, the “reaction value (absorbance at 450 nm minus blank)” value with Immunoglobulin M was 0.2 to 0.5 od; with Transferrin, 0.1 to 0.2 od; in the test with Fibrinogen, 0.1 to 0.2 od; with Immunoglobulin G it was 0.1 to 0.2 od; with α2-Macroglobulin, at least 0.5 od; in the test with Human serum albumin [3] it was 0.1 to 0.2 od. In addition, the “reaction value (absorbance at 450 nm minus blank)” value with Immunoglobulin A lay in the range of 0.2 to 0.5 od; with α1-Acid glycoprotein, 0.2 to 0.5 od; in test [4], 0.1 to 0.2 od; with Complement C3, 0.1 to 0.2 od.

B3: Lens culinaris lectin (other)
chain 1: TETTSFSITKFSPDQKNLIFQGDGYTTKGKLTLTKAVKSTVGRALYSTPIHIWDRDTGNVANFVTSFTFVIDAPSSYNVADEFTFFIAPVDTKPQTGGGYLGVFNSKEYDKTSQTVAVEFDTFYNAAWDPSNKERHIGIDVNSIKSVNTKSWNLQNGERANVVIAFNAATNVLTVTLTYP
chain 2: VTSYTLNEVVPLKDVVPEWVRIGFSATTGAEFAAHEVHSWSFHSELGGTSSS
modifications: biotin label (site not stated)
notes: Bought, biotin-labeled; The natural lectin is processed into alpha and beta chains; also called LCA
On to B3, for which the binding result with Human serum albumin [1] was “no binding”.
